The text below walks through data of paper PMC4718513.

The test has as its target VAPB-MSP domain, MSP(1–125) (human) (UniProt O95292). Kind of test: NMR titration; 1H-15N HSQC of 15N-labelled VAPB protein (50 uM) with unlabelled NS5B or Eph protein added at different molar ratios (increment 0.5 for C-linker and Eph); 10 mM phosphate buffer pH 6.8, 25 C, 800 MHz; CSD tracings fitted with a one binding site model for residue-specific Kd.
Chain of UniProt O95292 (O95292 1-125): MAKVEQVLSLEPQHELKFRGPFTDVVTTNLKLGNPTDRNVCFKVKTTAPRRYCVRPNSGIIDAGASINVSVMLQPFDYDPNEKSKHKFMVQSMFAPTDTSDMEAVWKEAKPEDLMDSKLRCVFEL

The Kd is the equilibrium constant for the complex coming apart. Take NS5B C-linker peptide (531–570): the Kd stood at 8.8 µM, the residue-specific Kd (MSP residue 53C) was determined as 1.4 µM, the residue-specific Kd (MSP residue 79D) is 13.6 µM and the residue-specific Kd (MSP residue 82E) came to 12.8 µM. Further, the residue-specific Kd (MSP residue 90V) turned out to be 9 µM, the residue-specific Kd (MSP residue 116D) was 5.7 µM, the residue-specific Kd (MSP residue 118K) came out at 2.9 µM and the residue-specific Kd (MSP residue 119L) was found to be 16 µM.
